These results are taken from US20200078399A1 (LEGEND BIOTECH USA, published 2020).

Experiment in all cases: cell-based or functional assay
Experiment [1] concerns the target human BCMA (B cell mature antigen, CD269, TNFRSF17) on cells (human) (UniProt Q02223).
For experiment [2], the target named is T1, CD38 on K562.CD38.Luc cells (UniProt P28907 1-300, limits assumed).
T1 sequence (looked up): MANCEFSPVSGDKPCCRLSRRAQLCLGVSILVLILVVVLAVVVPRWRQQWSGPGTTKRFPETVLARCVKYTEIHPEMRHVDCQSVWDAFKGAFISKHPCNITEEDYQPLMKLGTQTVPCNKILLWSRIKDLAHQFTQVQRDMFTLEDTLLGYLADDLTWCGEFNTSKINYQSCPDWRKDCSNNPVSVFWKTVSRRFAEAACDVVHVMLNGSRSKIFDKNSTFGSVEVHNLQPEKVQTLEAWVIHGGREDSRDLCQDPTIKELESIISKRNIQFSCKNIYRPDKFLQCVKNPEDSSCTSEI

The target of experiment [3] is T2, human BCMA (B cell mature antigen, CD269, TNFRSF17) on cells (human, UniProt Q02223 1-184).
T2 sequence: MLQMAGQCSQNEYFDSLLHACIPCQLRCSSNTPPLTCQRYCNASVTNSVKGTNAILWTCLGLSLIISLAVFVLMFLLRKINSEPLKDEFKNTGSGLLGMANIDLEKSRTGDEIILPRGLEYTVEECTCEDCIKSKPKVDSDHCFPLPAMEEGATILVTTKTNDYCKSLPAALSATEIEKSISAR

In experiment [1], LCAR-B27S CAR yielded a percentage of remaining viable RPMI8226.Luc cells (remaining luciferase activity), CAR-T from patient A, E/T 5:1, 20 hours of 68.6%; a percentage of remaining viable RPMI8226.Luc cells (remaining luciferase activity), CAR-T from patient A, E/T 20:1, 20 hours of 3.17%; a percentage of remaining viable RPMI8226.Luc cells (remaining luciferase activity), CAR-T from patient B, E/T 5:1, 20 hours of 84%; a percentage of remaining viable RPMI8226.Luc cells (remaining luciferase activity), CAR-T from patient B, E/T 20:1, 20 hours of 9.32%. In addition, in experiment [1], the percentage of remaining viable RPMI8226.Luc cells (remaining luciferase activity), CAR-T from patient C, E/T 5:1, 20 hours was determined as 101% and the percentage of remaining viable RPMI8226.Luc cells (remaining luciferase activity), CAR-T from patient C, E/T 20:1, 20 hours was 10.1%.

In experiment [1], LCAR-B38M CAR gave a percentage of remaining viable RPMI8226.Luc cells (remaining luciferase activity), CAR-T from patient A, E/T 5:1, 20 hours of 33.4%; a percentage of remaining viable RPMI8226.Luc cells (remaining luciferase activity), CAR-T from patient A, E/T 20:1, 20 hours of 3.97%; a percentage of remaining viable RPMI8226.Luc cells (remaining luciferase activity), CAR-T from patient B, E/T 5:1, 20 hours of 40.9%; a percentage of remaining viable RPMI8226.Luc cells (remaining luciferase activity), CAR-T from patient B, E/T 20:1, 20 hours of 4.45%. In addition, in experiment [1], the percentage of remaining viable RPMI8226.Luc cells (remaining luciferase activity), CAR-T from patient C, E/T 5:1, 20 hours was 30% and the percentage of remaining viable RPMI8226.Luc cells (remaining luciferase activity), CAR-T from patient C, E/T 20:1, 20 hours is 2.56%.

B1: BCAR001 (other)
chain: QVKLEESGGGLVQAGRSLRLSCAASEHTFSSHVMGWFRQAPGKERESVAVIGWRDISTSYADSVKGRFTISRDNAKKTLYLQMNSLKPEDTAVYYCAARRIDAADFDSWGQGTQVTVSSGGGGSAVQLVESGGGLVQAGDSLRLTCTASGRAFSTYFMAWFRQAPGKEREFVAGIAWSGGSTAYADSVKGRFTISRDNAKNTVYLQMNSLKSEDTAVYYCASRGIEVEEFGAWGQGTQVTVSSTSTTTPAPRPPTPAPTIASQPLSLRPEACRPAAGGAVHTRGLDFACDIYIWAPLAGTCGVLLLSLVITLYCKRGRKKLLYIFKQPFMRPVQTTQEEDGCSCRFPEEEEGGCELRVKFSRSADAPAYQQGQNQLYNELNLGRREEYDVLDKRRGRDPEMGGKPRRKNPQEGLYNELQKDKMAEAYSEIGMKGERRRGKGHDGLYQGLSTATKDTYDALHMQALPPR
Regarding B1, the “IFN gamma release in co-culture with K562.CD38.Luc (BCMA negative control; UnT 85.65 pg/ml), mean” value in experiment [2] was determined as 136 pg/mL. In addition, in experiment [3], the “IFN gamma release in co-culture with RPMI8226.Luc, mean” value was 1100 pg/mL and the “IFN gamma release in co-culture with Raji.Luc, mean” value was determined as 796 pg/mL.
